Results published in US20160136234A1.

Legend:
Assay in all cases: cell-based or functional assay
ALK (h) (human) = ALK (h) (human) (UniProt Q9UM73)
CDK3/cyclinE (h) (human) = CDK3/cyclinE (h) (human) (UniProt Q00526)
[1] = biological target: CDK7/cyclinH/MAT1 (h) (human) (UniProt P50613)
CK1δ (h) (human) = CK1δ (h) (human) (UniProt P48730)
EGFR(T790M) (h) (human) = EGFR(T790M) (h) (human) (UniProt P00533)
EphB1 (h) (human) = EphB1 (h) (human) (UniProt P54762)
FGFR1 (h) (human) = FGFR1 (h) (human) (UniProt P11362)
Chain of FGFR1 (h) (human) (P11362 456-765 limits assumed): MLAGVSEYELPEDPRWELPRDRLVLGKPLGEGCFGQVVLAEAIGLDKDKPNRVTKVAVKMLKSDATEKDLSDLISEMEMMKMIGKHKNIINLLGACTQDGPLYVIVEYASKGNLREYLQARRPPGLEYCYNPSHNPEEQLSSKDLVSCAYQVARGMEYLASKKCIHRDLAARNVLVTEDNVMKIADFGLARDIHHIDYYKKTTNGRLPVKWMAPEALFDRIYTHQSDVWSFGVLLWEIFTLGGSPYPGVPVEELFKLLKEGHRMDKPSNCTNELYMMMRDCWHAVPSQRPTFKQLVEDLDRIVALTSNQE

FGFR1(V561M) (h) (human) = FGFR1(V561M) (h) (human) (UniProt P11362)
Chain of FGFR1(V561M) (h) (human) (P11362 456-765 V561M limits assumed): as the sequence (P11362 456-765 limits assumed) above, with V106M counted along it

Fms(Y969C) (h) (human) = biological target: T1, Fms(Y969C) (h) (human) (UniProt P07333)
T1 sequence (looked up): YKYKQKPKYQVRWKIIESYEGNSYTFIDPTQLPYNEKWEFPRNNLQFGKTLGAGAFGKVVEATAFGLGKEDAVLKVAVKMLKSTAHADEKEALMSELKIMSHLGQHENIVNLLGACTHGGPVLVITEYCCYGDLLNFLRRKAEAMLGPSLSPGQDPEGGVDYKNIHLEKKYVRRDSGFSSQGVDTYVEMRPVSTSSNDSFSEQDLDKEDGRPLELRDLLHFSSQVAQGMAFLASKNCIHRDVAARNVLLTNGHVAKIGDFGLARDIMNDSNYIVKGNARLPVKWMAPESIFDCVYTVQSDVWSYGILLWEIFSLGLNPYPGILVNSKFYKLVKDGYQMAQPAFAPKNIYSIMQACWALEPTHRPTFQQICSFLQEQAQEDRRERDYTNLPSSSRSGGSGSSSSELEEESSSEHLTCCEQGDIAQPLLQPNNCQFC

Fyn (h) (human) = Fyn (h) (human) (UniProt P06241)
Hck (h) (human) = Hck (h) (human) (UniProt P08631)
IRR (h) (human) = IRR (h) (human) (UniProt P14616)
Chain of IRR (h) (human) (P14616 944-1297 limits assumed): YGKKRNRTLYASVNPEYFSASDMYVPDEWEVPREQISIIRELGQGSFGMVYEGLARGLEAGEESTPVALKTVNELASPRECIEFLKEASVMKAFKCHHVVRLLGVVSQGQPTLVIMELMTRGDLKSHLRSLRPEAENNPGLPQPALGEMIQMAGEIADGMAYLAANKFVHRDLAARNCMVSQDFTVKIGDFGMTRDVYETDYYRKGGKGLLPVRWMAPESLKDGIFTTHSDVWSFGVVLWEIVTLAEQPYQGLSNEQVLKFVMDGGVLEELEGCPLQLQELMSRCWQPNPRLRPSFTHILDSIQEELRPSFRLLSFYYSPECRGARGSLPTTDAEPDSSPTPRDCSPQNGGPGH

Lck (h) (human) = Lck (h) (human) (UniProt P06239)
MAPK2 (h) (human) = MAPK2 (h) (human) (UniProt P28482)
Chain of MAPK2 (h) (human) (P28482 whole entry): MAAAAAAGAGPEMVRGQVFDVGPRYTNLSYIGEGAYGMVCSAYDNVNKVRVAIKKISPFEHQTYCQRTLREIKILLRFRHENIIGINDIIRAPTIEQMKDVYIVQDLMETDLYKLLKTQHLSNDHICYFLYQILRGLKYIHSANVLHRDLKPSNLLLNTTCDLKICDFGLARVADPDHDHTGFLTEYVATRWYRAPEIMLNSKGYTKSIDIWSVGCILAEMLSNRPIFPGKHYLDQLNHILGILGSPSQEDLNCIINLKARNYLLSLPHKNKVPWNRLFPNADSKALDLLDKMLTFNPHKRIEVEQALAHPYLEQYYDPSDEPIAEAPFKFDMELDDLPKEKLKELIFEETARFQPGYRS

MST3 (h) (human) = MST3 (h) (human) (UniProt Q9Y6E0)
Met(Y1248C) (h) (human) = Met(Y1248C) (h) (human) (UniProt P08581)
PKCζ (h) (human) = biological target: T2, PKCζ (h) (human) (UniProt Q05513)
T2 sequence (looked up): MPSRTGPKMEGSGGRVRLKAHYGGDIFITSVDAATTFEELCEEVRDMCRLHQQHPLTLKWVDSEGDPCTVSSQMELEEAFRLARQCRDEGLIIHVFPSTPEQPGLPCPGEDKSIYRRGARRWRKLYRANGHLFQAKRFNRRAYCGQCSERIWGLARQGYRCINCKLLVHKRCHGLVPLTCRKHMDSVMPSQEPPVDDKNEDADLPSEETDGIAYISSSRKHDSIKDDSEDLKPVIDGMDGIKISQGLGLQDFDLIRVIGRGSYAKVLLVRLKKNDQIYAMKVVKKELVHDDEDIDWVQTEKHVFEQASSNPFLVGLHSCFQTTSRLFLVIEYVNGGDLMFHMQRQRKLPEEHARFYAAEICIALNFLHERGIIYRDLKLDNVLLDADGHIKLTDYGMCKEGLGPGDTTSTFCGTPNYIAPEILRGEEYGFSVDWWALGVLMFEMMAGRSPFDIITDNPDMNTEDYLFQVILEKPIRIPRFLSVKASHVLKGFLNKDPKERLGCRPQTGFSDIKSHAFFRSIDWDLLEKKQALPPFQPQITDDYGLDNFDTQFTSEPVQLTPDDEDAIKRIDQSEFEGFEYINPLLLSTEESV

Ret(V804M) (h) (human) = biological target: T3, Ret(V804M) (h) (human) (UniProt P07949)
T3 sequence (looked up): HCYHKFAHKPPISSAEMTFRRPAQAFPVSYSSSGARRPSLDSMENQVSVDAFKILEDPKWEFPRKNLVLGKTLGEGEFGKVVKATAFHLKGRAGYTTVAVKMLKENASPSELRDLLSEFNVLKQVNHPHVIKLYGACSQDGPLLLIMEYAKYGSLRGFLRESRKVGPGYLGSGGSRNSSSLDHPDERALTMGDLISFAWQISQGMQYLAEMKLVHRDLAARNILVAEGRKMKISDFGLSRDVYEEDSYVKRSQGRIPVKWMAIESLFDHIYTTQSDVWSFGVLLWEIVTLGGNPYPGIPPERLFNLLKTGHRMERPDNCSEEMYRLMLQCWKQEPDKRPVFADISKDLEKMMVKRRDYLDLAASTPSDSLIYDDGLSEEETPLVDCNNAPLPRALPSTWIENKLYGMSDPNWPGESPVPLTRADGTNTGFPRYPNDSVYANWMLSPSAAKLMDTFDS

SAPK4 (h) (human) = biological target: T4, SAPK4 (h) (human) (UniProt O15264)
T4 sequence (looked up): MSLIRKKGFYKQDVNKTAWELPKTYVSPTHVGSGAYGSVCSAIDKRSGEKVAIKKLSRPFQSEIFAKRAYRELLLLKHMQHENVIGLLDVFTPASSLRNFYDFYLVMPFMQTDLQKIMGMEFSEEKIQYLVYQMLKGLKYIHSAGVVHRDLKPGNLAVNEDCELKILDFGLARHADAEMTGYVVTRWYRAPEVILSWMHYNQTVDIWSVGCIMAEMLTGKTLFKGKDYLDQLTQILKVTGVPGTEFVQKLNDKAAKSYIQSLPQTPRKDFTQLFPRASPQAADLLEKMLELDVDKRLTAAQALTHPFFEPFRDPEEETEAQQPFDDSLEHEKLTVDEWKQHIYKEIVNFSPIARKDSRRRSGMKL

cKit(D816H) (h) (human) = cKit(D816H) (h) (human) (UniProt P10721)
Chain of cKit(D816H) (h) (human) (P10721 544-976 D816H): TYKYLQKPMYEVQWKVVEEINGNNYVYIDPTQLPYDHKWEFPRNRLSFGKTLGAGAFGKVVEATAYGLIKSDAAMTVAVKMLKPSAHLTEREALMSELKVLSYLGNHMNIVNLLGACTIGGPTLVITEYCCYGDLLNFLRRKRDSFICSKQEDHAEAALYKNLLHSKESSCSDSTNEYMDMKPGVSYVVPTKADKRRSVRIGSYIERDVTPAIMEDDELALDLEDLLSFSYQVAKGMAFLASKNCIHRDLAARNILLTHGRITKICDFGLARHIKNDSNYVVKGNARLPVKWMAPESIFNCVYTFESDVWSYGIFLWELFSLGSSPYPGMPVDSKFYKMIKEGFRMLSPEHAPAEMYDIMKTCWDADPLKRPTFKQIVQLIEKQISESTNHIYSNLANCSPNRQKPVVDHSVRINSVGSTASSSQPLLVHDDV

Chain of CDK7/cyclinH/MAT1 (h) (human) (P50613 whole entry, chain 1 of 3): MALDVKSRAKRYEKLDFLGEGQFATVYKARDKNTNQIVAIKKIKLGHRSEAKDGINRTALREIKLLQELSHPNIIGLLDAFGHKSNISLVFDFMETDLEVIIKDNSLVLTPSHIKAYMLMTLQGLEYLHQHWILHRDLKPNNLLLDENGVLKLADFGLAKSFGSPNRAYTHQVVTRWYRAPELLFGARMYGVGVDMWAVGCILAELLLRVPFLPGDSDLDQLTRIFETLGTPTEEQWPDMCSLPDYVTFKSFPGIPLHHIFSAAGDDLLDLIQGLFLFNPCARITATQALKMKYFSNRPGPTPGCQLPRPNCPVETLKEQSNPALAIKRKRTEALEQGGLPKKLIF
Chain of CDK7/cyclinH/MAT1 (h) (human) (P51946 whole entry, chain 2 of 3, further chain): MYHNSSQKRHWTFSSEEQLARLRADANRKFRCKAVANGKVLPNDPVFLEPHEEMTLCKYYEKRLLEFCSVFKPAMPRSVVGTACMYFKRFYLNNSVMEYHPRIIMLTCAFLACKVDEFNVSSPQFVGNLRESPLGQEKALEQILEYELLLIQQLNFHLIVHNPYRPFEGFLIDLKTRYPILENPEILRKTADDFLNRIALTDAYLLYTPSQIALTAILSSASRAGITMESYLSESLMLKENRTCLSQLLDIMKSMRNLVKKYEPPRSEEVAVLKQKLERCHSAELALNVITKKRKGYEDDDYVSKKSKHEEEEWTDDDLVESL
Chain of CDK7/cyclinH/MAT1 (h) (human) (P51948 whole entry, chain 3 of 3, further chain): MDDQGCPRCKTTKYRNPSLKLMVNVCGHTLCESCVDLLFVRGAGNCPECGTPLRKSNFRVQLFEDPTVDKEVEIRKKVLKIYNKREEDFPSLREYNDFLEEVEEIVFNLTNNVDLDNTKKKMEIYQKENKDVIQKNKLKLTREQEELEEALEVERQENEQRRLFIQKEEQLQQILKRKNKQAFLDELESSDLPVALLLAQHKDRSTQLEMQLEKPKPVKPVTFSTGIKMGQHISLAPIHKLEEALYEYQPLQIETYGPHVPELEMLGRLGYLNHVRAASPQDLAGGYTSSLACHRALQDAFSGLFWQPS
Chain of EphB1 (h) (human) (P54762 564-984 limits assumed): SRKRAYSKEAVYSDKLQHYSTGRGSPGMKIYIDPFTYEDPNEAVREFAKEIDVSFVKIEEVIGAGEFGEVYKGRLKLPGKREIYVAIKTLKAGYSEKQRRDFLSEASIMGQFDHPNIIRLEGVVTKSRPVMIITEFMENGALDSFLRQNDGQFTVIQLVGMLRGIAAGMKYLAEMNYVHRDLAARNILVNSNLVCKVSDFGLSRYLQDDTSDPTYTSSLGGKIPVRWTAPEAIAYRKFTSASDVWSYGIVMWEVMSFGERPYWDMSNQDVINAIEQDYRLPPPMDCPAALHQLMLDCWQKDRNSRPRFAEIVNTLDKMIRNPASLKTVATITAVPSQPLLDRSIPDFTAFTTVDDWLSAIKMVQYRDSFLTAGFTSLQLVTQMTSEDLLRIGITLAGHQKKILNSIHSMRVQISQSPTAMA

- % activity at 100 µM (ALK (h) (human)): 19%
- % activity at 100 µM (CDK3/cyclinE (h) (human)): 94%
- % activity at 100 µM [1]: 65%
- % activity at 100 µM (CK1δ (h) (human)): 92%
- % activity at 100 µM (EGFR(T790M) (h) (human)): 100%
- % activity at 100 µM (EphB1 (h) (human)): 44%
- % activity at 100 µM (FGFR1 (h) (human)): 55%
- % activity at 100 µM (FGFR1(V561M) (h) (human)): 74%
- % activity at 100 µM (Fms(Y969C) (h) (human)): 72%
- % activity at 100 µM (Fyn (h) (human)): 74%
- % activity at 100 µM (Hck (h) (human)): 72%
- % activity at 100 µM (IRR (h) (human)): 8%
- % activity at 100 µM (Lck (h) (human)): -2%
- % activity at 100 µM (MAPK2 (h) (human)): 98%
- % activity at 100 µM (MST3 (h) (human)): 45%
- % activity at 100 µM (Met(Y1248C) (h) (human)): 84%
- % activity at 100 µM (PKCζ (h) (human)): 81%
- % activity at 100 µM (Ret(V804M) (h) (human)): 95%
- % activity at 100 µM (SAPK4 (h) (human)): 96%
- % activity at 100 µM (cKit(D816H) (h) (human)): 126%
Substance: MMI-0300 (peptide)
